{"source": "patent US20230270824A1", "about": "“INTERFERON-BASED CANCER TREATMENT METHOD AND PHARMACEUTICAL COMPOSITION” (XIAMEN AMOYTOP BIOTECH CO., LTD., priority 2019, published 2023)", "molecules": {"B1": {"name": "PEG-mIFN-α4: deglycosylated recombinant mouse interferon α4 modified with 40 kD Y-type polyethylene glycol (YPEG-NHS); SEQ ID NO: 6 (protein)", "chain": "CDLPHTYNLGNKRALTVLEEMRRLPPLSCLKDRKDFGFPLEKVDNQQIQKAQAILVLRDLTQQILNLFTSKDLSATWNATLLDSFCNDLHQQLNDLKACVMQEPPLTQEDSLLAVRTYFHRITVYLRKKKHSLCAWEVIRAEVWRALSSSTNLLARLSEEKE", "modifications": "40 kD Y-type PEG; deglycosylated; amino acid sequence of peginterferon murine 4"}}, "key": {"[1]": {"test_system": "transplanted lung cancer LLC", "experiment": "Interferon combined with gemcitabine, transplanted lung cancer LLC in mice (Example 6)", "type": "in vivo, C57BL/6N mice", "method": "(§1) In this example, a comparative study on the efficacy of PEG-mIFN-α4 intermittent administration (once every 48 hours for four consecutive times, then drug withdrawal for 192 hours; for 5 rounds), PEG-mIFN-α4 continuous administration (once every 48 hours for 32 consecutive times), PEG-mIFN-α4 in combination with gemcitabine (PEG-mIFN-α4: once every 48 hours for four consecutive times, then drug withdrawal for 360 hours, 4 rounds; gemcitabine: once a week) on transplanted liver cancer LLC in mice was performed.\n(§2) On the day when the tumor was inoculated, they were randomly divided into PEG-mIFN-α4 continuous administration group (N=26, female 13, male 13), PEG-mIFN-α4 intermittent administration group (N=26, female 13, male 13), the normal saline control group (N=26, female 13, male 13), the gemcitabine only group (N=26, female 13, male 13), and PEG-mIFN-α4 combined with gemcitabine group (N=26, female 13, male 13).\nFor the PEG-mIFN-α4 intermittent administration group, PEG-mIFN-α4 was administered once every 48 hours for 4 consecutive times, then drug withdrawal for 192 hours; for […]. For the PEG-mIFN-α4 continuous administration group, PEG-mIFN-α4 was administered once every 48 hours. For the PEG-mIFN-α4 combined with gemcitabine group, PEG-mIFN-α4 was administered once every 48 hours for 4 consecutive times, then drug withdrawal for 360 hours; for 4 rounds; and gemcitabine was administered once a week. For the gemcitabine only group, gemcitabine was administered once a week. For the saline control group, equal volume of saline was administered. Gemcitabine was injected intraperitoneally, 60 mg/kg.\n(§3) SAS9.4 software was used for comparing the difference in mortality, and the statistical tests were all two-sided tests."}, "[2]": {"test_system": "transplanted breast cancer 4T1", "experiment": "Interferon combined with gemcitabine, transplanted breast cancer 4T1 in mice (Example 9)", "type": "in vivo, BALB/c mice", "settings": "53 days after tumor inoculation", "method": "as §1, with “3” for “four”, “144” for “192”, “25” for “32”, “240” for “360”, “breast” for “liver”, “4T1” for “LLC”\nas §2, with “(N=24,” for “(N=26,”, “12,” for “13,”, “12),” for “13),”, “12).” for “13).”\nFor the PEG-mIFN-α4 intermittent administration group, PEG-mIFN-α4 was administered once every 48 hours for 3 consecutive times, then drug withdrawal for 144 hours; for 5 rounds. For the PEG-mIFN-α4 continuous administration group, PEG-mIFN-α4 was administered once every 48 hours. For the PEG-mIFN-α4 combined with gemcitabine group, PEG-mIFN-α4 was administered once every 48 hours for 3 consecutive times, then drug withdrawal for 240 hours; for 4 rounds; and gemcitabine was administered once a week. For the gemcitabine only group, gemcitabine was administered once a week. For the saline control group, equal volume of saline was administered. Gemcitabine was injected intraperitoneally, 60 mg/kg.\nas §3"}}, "note": "Values joined by “and” are separate entries in the source; they are usually repeats but may differ in a detail not shown here. Identical values can stand only once."}
{"molecule": "B1", "values": [{"measurement": "Mortality", "setting": "[1]; continuous administration (1 μg/mouse s.c. once every 48 hours), 45 days after tumor inoculation", "result": 100, "unit": "%"}, {"measurement": "Mortality", "setting": "[1]; continuous administration (once every 48 hours), Day 64 post tumor inoculation", "result": 100, "unit": "%"}, {"measurement": "Mortality", "setting": "[1]; intermittent administration (every 48 h x4, withdrawal 192 h), 45 days after tumor inoculation", "result": 34.6, "unit": "%"}, {"measurement": "Mortality", "setting": "[1]; intermittent administration (every 48 h x4, withdrawal 192 h), Day 64 post tumor inoculation", "result": 84.6, "unit": "%"}, {"measurement": "Mortality", "setting": "[2]; continuous administration (once every 48 hours, 25 times)", "result": "87.5% and 58.3%"}, {"measurement": "Mortality", "setting": "[2]; intermittent administration (every 48 h x3, withdrawal 144 h, 5 rounds)", "result": 87.5, "unit": "%"}]}
